Legend:
DnaD-Cd196 [1] = target: T1, DnaD-Cd196 (Bacillus subtilis, UniProt P39787 129-196); assay: NMR
T1 sequence: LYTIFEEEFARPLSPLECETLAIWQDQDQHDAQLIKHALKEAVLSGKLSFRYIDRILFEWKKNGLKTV

DnaD-Cd (DnaD-Cd232) = target: T2, DnaD-Cd (DnaD-Cd232) (Bacillus subtilis, UniProt P39787 129-232); assay: NMR
T2 sequence: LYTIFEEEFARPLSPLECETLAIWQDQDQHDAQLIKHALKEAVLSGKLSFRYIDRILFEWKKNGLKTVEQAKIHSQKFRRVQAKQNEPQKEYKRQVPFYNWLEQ

DnaD-Cd206 = target: T3, DnaD-Cd206 (Bacillus subtilis, UniProt P39787 129-206); assay: NMR
T3 sequence: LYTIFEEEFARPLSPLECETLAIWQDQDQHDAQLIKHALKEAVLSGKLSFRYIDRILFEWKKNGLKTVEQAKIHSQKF

DnaD-Cd215 = target: T4, DnaD-Cd215 (Bacillus subtilis, UniProt P39787 129-215); assay: NMR
T4 sequence: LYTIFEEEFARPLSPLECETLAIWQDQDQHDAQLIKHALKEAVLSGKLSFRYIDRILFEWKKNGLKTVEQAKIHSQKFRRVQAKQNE

DnaD-Cd196 [2] = target: T1, DnaD-Cd196; assay: EMSA

B1: 10-mer ssDNA (ssDNA)
DNA: GTTATTGCTC
B1: no binding (DnaD-Cd196 [1]); binds (DnaD-Cd (DnaD-Cd232)); no binding (DnaD-Cd206). B1: binds (DnaD-Cd215).

B2: Y180AF ss probe (ssDNA)
DNA: CTCAGTTTCCGCGCGATTGACCGGATT
B2: no binding (DnaD-Cd196 [2]).

Source: article PMC2978336
